Reference: publication PMC8347774, “Construction of Fluorescent Immunosensor Quenchbody to Detect His-Tagged Recombinant Proteins Produced in Bioprocess” (Sensors (Basel, Switzerland), 2021)
Like-named read-outs stand apart in the source and are kept apart here. The star is where a group is joined. Biotin = O=C1N[C@H]2[C@H](CS[C@H]2CCCCC(=O)*)N1

Legend:
[1] = target: T1, biotinylated His6 peptide (bio-EGGGSHHHHHH-COOH) (synthetic peptide, SMILES …); assay: BLI; biotinylated His6 peptide (100 nM) loaded on streptavidin biosensors; unlabeled protein or Q-body in two-fold dilutions in Kinetic buffer (phosphate, 150 mM NaCl, 0.002% Tween20, 0.1% BSA, pH 7.4); global fit, 1:1 model; Octet K2
T1 construct: spacer EGGGS and His6; Held on streptavidin biosensors by its biotin; source: synthetic peptide (PSSM-8 peptide synthesizer)
T1 chain: Biotin-EGGGSHHHHHH-OH

[2] = target: T2, His6 peptide (antigen of the fluorescence assays) (synthetic peptide); assay: other fluorescence titration; Q-body de-quenching in solution with His6 peptide at varied concentrations, PBST, plate reader; EC50 from a four-parameter logistic fit; settings: both partners purified
T2 construct: His6; The materials name only the biotinylated His6 peptide as synthesised; it may be the same peptide as m17
T2 chain: HHHHHH

[3] = target: anti-SARS-CoV-2 VHH nanobody tagged with a hinge, 3xFLAG and C-terminal His tags; assay: other fluorescence titration

Binder	Kd [1]	koff [1]	kon [1]	EC50 [2]	Kd ([1]; both partners purified)	koff ([1]; both partners purified)	kon ([1]; both partners purified)	EC50 [3]	Kd ([1]; record 2)
anti-His scFv 3D5 WW variant (scFv, V domains shown) VH: QVQLQQSGPEDVKPGASVKISCKASGYTFTDWWMNWVKQSPGKGLEWIGDINPNNGGTSYNQKFKGRATLTVDKSSSTAYMELRSLTSEDSSVYYCESQSGAYWGQGTTVTVSA VL: DILMTQTPSSLPVSLGDQASISCRSSQSIVHSNGNTYLEWYLQKPGQSPKLLIYKVSNRFSGVPDRFSGSGSGTDFTLKISRVEAEDLGVYYCFQGSHVPFTFGSGTKLEIK	2.88 nM	0.000835 s⁻¹	290000 M⁻¹ s⁻¹	–	–	–	–	–	–
anti-His Fab 3D5 WW variant (Fab, V domains shown) VH: QVQLQQSGPEDVKPGASVKISCKASGYTFTDWWMNWVKQSPGKGLEWIGDINPNNGGTSYNQKFKGRATLTVDKSSSTAYMELRSLTSEDSSVYYCESQSGAYWGQGTTVTVSA VL: DILMTQTPSSLPVSLGDQASISCRSSQSIVHSNGNTYLEWYLQKPGQSPKLLIYKVSNRFSGVPDRFSGSGSGTDFTLKISRVEAEDLGVYYCFQGSHVPFTFGSGTKLEIK	0.17 nM	2.27e-05 s⁻¹	132000 M⁻¹ s⁻¹	–	–	–	–	–	–
5-TAMRA C6 maleimide double-labeled wild-type Fab 3D5 Q-body (Fab, V domains shown, VH of antibody 3D5, as in m7; CH1 of the vector pUQ2, as in m7; VL of antibody 3D5, as the light chain of m7; CL of the vector pUQ2, as the light chain of m7; m7 labelled with two dyes; also called Wild-type TAMRA; source: E. coli SHuffle T7 Express with pGro7, purified (Talon IMAC), labelled, purified (anti-FLAG M2 beads, G-25); not shown: Cys-tag, N-terminal, kept; His6, C-terminal, kept; myc, …) VH: QVQLQQSGPEDVKPGASVKISCKASGYTFTDYYMNWVKQSPGKGLEWIGDINPNNGGTSYNQKFKGRATLTVDKSSSTAYMELRSLTSEDSSVYYCESQSGAYWGQGTTVTVSA VL: DILMTQTPSSLPVSLGDQASISCRSSQSIVHSNGNTYLEWYLQKPGQSPKLLIYKVSNRFSGVPDRFSGSGSGTDFTLKISRVEAEDLGVYYCFQGSHVPFTFGSGTKLEIK	–	–	–	132000 ± 34000 nM	3.19 nM	0.000672 s⁻¹	210000 M⁻¹ s⁻¹	–	–
5-TAMRA C6 maleimide double-labeled WW Fab 3D5 Q-body (Fab, V domains shown, VH of antibody 3D5, as the VH of m7 with the stated changes; numbers count on: Kabat numbering of the heavy chain; CH1 of the vector pUQ2, as in m7; VL of antibody 3D5, as the light chain of m7; CL of the vector pUQ2, as the light chain of m7; m8 labelled with two dyes; also called WW TAMRA; source: E. coli SHuffle T7 Express with pGro7, purified (Talon IMAC), labelled, purified (anti-FLAG M2 …)) VH: QVQLQQSGPEDVKPGASVKISCKASGYTFTDWWMNWVKQSPGKGLEWIGDINPNNGGTSYNQKFKGRATLTVDKSSSTAYMELRSLTSEDSSVYYCESQSGAYWGQGTTVTVSA VL: DILMTQTPSSLPVSLGDQASISCRSSQSIVHSNGNTYLEWYLQKPGQSPKLLIYKVSNRFSGVPDRFSGSGSGTDFTLKISRVEAEDLGVYYCFQGSHVPFTFGSGTKLEIK	1.72 nM	0.000455 s⁻¹	264000 M⁻¹ s⁻¹	89500 ± 25400 nM	–	–	–	11500 nM	3.19 nM
ATTO520-C2 maleimide double-labeled WW Fab 3D5 Q-body (Fab, V domains shown, VH of antibody 3D5, as the VH of m7 with the stated changes; numbers count on: Kabat numbering of the heavy chain; CH1 of the vector pUQ2, as in m7; VL of antibody 3D5, as the light chain of m7; CL of the vector pUQ2, as the light chain of m7; m8 labelled with two ATTO520 dyes; also called WW ATTO520; WW-ATTO520; source: E. coli SHuffle T7 Express with pGro7, purified (Talon IMAC), labelled, …) VH: QVQLQQSGPEDVKPGASVKISCKASGYTFTDWWMNWVKQSPGKGLEWIGDINPNNGGTSYNQKFKGRATLTVDKSSSTAYMELRSLTSEDSSVYYCESQSGAYWGQGTTVTVSA VL: DILMTQTPSSLPVSLGDQASISCRSSQSIVHSNGNTYLEWYLQKPGQSPKLLIYKVSNRFSGVPDRFSGSGSGTDFTLKISRVEAEDLGVYYCFQGSHVPFTFGSGTKLEIK	–	–	–	8800 ± 1300 nM	–	–	–	10700 nM	–
ATTO520-C2 maleimide double-labeled wild-type Fab 3D5 Q-body (Fab, V domains shown, VH of antibody 3D5, as in m7; CH1 of the vector pUQ2, as in m7; VL of antibody 3D5, as the light chain of m7; CL of the vector pUQ2, as the light chain of m7; m7 labelled with two ATTO520 dyes; also called Wild-type ATTO520; source: E. coli SHuffle T7 Express with pGro7, purified (Talon IMAC), labelled, purified (anti-FLAG M2 beads, G-25); not shown: Cys-tag, N-terminal, kept; His6, C-terminal, …) VH: QVQLQQSGPEDVKPGASVKISCKASGYTFTDYYMNWVKQSPGKGLEWIGDINPNNGGTSYNQKFKGRATLTVDKSSSTAYMELRSLTSEDSSVYYCESQSGAYWGQGTTVTVSA VL: DILMTQTPSSLPVSLGDQASISCRSSQSIVHSNGNTYLEWYLQKPGQSPKLLIYKVSNRFSGVPDRFSGSGSGTDFTLKISRVEAEDLGVYYCFQGSHVPFTFGSGTKLEIK	–	–	–	13800 ± 5100 nM	–	–	–	–	–
anti-His scFv 3D5 (wild-type) (scFv, V domains shown, VH of antibody 3D5 (anti-C-terminal His tag); numbers count on: Kabat numbering of the heavy chain; linker between VH and VL of the VH-VL type scFv (synthesised gene in pEX-K4J2-1KTR); VL of antibody 3D5; VH-VL order, vector pSQ (3D5); also called wild-type scFv; source: E. coli SHuffle T7 Express with pGro7, purified (Talon IMAC); not shown: Cys-tag, N-terminal, kept; His6, C-terminal, kept; …) VH: QVQLQQSGPEDVKPGASVKISCKASGYTFTDYYMNWVKQSPGKGLEWIGDINPNNGGTSYNQKFKGRATLTVDKSSSTAYMELRSLTSEDSSVYYCESQSGAYWGQGTTVTVSA VL: DILMTQTPSSLPVSLGDQASISCRSSQSIVHSNGNTYLEWYLQKPGQSPKLLIYKVSNRFSGVPDRFSGSGSGTDFTLKISRVEAEDLGVYYCFQGSHVPFTFGSGTKLEIK	–	–	–	–	5.03 nM	0.000425 s⁻¹	84500 M⁻¹ s⁻¹	–	–
anti-His Fab 3D5 YW variant (Fab, V domains shown, VH of antibody 3D5, as the VH of m7 with the stated change; numbers count on: Kabat numbering of the heavy chain; CH1 of the vector pUQ2, as in m7; VL of antibody 3D5, as the light chain of m7; CL of the vector pUQ2, as the light chain of m7; YW read as Tyr kept at 32H and Trp at 33H; source: E. coli SHuffle T7 Express with pGro7, purified (Talon IMAC); not shown: Cys-tag, N-terminal, kept; His6, …) VH: QVQLQQSGPEDVKPGASVKISCKASGYTFTDYWMNWVKQSPGKGLEWIGDINPNNGGTSYNQKFKGRATLTVDKSSSTAYMELRSLTSEDSSVYYCESQSGAYWGQGTTVTVSA VL: DILMTQTPSSLPVSLGDQASISCRSSQSIVHSNGNTYLEWYLQKPGQSPKLLIYKVSNRFSGVPDRFSGSGSGTDFTLKISRVEAEDLGVYYCFQGSHVPFTFGSGTKLEIK	–	–	–	–	0.76 nM	0.000105 s⁻¹	139000 M⁻¹ s⁻¹	–	–
anti-His Fab 3D5 (wild-type) (Fab, V domains shown, VH of antibody 3D5; numbers count on: Kabat numbering of the heavy chain; CH1 of the vector pUQ2 (Fd = VH-CH1); VL of antibody 3D5; CL of the vector pUQ2 (Lc = VL-CL); Linker-less pUQ2 (3D5): the (GGGS)4 linker between Cys-tag and VH was removed; His6 is followed by myc on the heavy chain; also called wild-type Fab; source: E. coli SHuffle T7 Express with pGro7, purified (Talon IMAC); not shown: …) VH: QVQLQQSGPEDVKPGASVKISCKASGYTFTDYYMNWVKQSPGKGLEWIGDINPNNGGTSYNQKFKGRATLTVDKSSSTAYMELRSLTSEDSSVYYCESQSGAYWGQGTTVTVSA VL: DILMTQTPSSLPVSLGDQASISCRSSQSIVHSNGNTYLEWYLQKPGQSPKLLIYKVSNRFSGVPDRFSGSGSGTDFTLKISRVEAEDLGVYYCFQGSHVPFTFGSGTKLEIK	–	–	–	–	3.62 nM	9.93e-05 s⁻¹	27400 M⁻¹ s⁻¹	–	–
ATTO520-C2 maleimide double-labeled YW Fab 3D5 Q-body (Fab, V domains shown, VH of antibody 3D5, as the VH of m7 with the stated change; numbers count on: Kabat numbering of the heavy chain; CH1 of the vector pUQ2, as in m7; VL of antibody 3D5, as the light chain of m7; CL of the vector pUQ2, as the light chain of m7; m9 labelled with two ATTO520 dyes; also called YW ATTO520; YW-ATTO520; source: E. coli SHuffle T7 Express with pGro7, purified (Talon IMAC), labelled, …) VH: QVQLQQSGPEDVKPGASVKISCKASGYTFTDYWMNWVKQSPGKGLEWIGDINPNNGGTSYNQKFKGRATLTVDKSSSTAYMELRSLTSEDSSVYYCESQSGAYWGQGTTVTVSA VL: DILMTQTPSSLPVSLGDQASISCRSSQSIVHSNGNTYLEWYLQKPGQSPKLLIYKVSNRFSGVPDRFSGSGSGTDFTLKISRVEAEDLGVYYCFQGSHVPFTFGSGTKLEIK	–	–	–	6100 ± 1400 nM	–	–	–	3000 nM	–
5-TAMRA C6 maleimide-labeled wild-type scFv 3D5 Q-body (scFv, V domains shown, VH of antibody 3D5, as in m1; linker between VH and VL, as in m1; VL of antibody 3D5, as in m1; m1 labelled with one dye; also called wild-type scFv Q-body; source: E. coli SHuffle T7 Express with pGro7, purified (Talon IMAC), labelled, purified (anti-FLAG M2 beads, G-25); not shown: Cys-tag, N-terminal, kept; His6, C-terminal, kept; FLAG, C-terminal, kept) VH: QVQLQQSGPEDVKPGASVKISCKASGYTFTDYYMNWVKQSPGKGLEWIGDINPNNGGTSYNQKFKGRATLTVDKSSSTAYMELRSLTSEDSSVYYCESQSGAYWGQGTTVTVSA VL: DILMTQTPSSLPVSLGDQASISCRSSQSIVHSNGNTYLEWYLQKPGQSPKLLIYKVSNRFSGVPDRFSGSGSGTDFTLKISRVEAEDLGVYYCFQGSHVPFTFGSGTKLEIK	–	–	–	–	26.8 nM	0.00303 s⁻¹	113000 M⁻¹ s⁻¹	–	–
5-TAMRA C6 maleimide double-labeled YW Fab 3D5 Q-body (Fab, V domains shown, VH of antibody 3D5, as the VH of m7 with the stated change; numbers count on: Kabat numbering of the heavy chain; CH1 of the vector pUQ2, as in m7; VL of antibody 3D5, as the light chain of m7; CL of the vector pUQ2, as the light chain of m7; m9 labelled with two dyes; also called YW TAMRA; source: E. coli SHuffle T7 Express with pGro7, purified (Talon IMAC), labelled, purified (anti-FLAG M2 …)) VH: QVQLQQSGPEDVKPGASVKISCKASGYTFTDYWMNWVKQSPGKGLEWIGDINPNNGGTSYNQKFKGRATLTVDKSSSTAYMELRSLTSEDSSVYYCESQSGAYWGQGTTVTVSA VL: DILMTQTPSSLPVSLGDQASISCRSSQSIVHSNGNTYLEWYLQKPGQSPKLLIYKVSNRFSGVPDRFSGSGSGTDFTLKISRVEAEDLGVYYCFQGSHVPFTFGSGTKLEIK	–	–	–	54700 ± 9500 nM	1.31 nM	0.000512 s⁻¹	392000 M⁻¹ s⁻¹	11100 nM	–
